Test results taken from publication PMC2606095 (Chemistry & biology, 2008).
Non-standard residues stand in square brackets, D forms with d. No end group written: not given here. pY = N[C@@H](Cc1ccc(OP(=O)(O)O)cc1)C(=O)O

T1: PTB domain of Shc (human)
T1 sequence (P29353 whole entry, looked up): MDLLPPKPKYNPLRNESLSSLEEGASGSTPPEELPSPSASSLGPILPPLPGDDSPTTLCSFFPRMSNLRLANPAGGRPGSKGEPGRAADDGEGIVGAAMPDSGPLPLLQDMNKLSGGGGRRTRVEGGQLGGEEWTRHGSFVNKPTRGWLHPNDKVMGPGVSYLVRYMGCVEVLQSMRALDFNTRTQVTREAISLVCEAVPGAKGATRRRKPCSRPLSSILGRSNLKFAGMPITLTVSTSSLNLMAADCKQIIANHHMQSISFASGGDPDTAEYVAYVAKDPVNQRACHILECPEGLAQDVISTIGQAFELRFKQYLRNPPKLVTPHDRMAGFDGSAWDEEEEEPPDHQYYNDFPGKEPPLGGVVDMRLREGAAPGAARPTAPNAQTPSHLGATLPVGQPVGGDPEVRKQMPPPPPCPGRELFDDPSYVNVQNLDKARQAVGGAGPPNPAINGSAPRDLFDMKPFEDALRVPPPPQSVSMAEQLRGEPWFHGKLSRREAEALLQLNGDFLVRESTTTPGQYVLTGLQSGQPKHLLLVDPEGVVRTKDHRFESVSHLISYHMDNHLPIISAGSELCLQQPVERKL

T2: core domain of Signal Transducer and Activator of Transcription 1 (STAT1) (human)
T2 chain: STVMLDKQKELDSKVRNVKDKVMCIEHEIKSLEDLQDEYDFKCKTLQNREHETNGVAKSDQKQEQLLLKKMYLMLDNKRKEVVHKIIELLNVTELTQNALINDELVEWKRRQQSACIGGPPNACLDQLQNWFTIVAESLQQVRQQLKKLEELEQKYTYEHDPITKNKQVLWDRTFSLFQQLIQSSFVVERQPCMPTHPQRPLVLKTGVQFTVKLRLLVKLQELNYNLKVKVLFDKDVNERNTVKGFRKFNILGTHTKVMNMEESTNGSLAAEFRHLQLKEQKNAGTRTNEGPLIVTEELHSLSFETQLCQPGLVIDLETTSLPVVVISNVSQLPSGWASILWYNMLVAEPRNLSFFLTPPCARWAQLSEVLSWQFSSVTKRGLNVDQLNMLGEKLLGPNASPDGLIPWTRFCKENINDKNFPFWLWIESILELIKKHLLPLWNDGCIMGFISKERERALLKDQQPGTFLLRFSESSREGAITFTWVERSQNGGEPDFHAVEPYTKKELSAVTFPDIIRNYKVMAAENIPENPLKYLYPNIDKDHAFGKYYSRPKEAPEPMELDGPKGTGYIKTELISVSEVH


Assays:
[1] = target: T1, PTB domain of Shc (human); assay: peptide or protein array
[2] = target: T2, core domain of Signal Transducer and …; assay: peptide or protein array

Kd [1] [nM]	Kd [2] [nM]	Binder
< 1000	–	{5(6)‑TAMRA}-AKKAFDNPD[pY]WNHSLPPD [ErbB4-1242 phosphopeptide]
–	2060	{5(6)‑TAMRA}-VQEDSSTQR[pY]SADPTVFD [ErbB4-1128 phosphopeptide]
–	1550	{5(6)‑TAMRA}-QAFNIPPPI[pY]TSRARIDD [ErbB4-1035 phosphopeptide]
< 1000	–	{5(6)‑TAMRA}-DLQALDNPE[pY]HNASNGPD [ErbB4-1188 phosphopeptide]
